Publication PMC2823527 (The Journal of Biological Chemistry, 2009)
Read-outs that look alike come from different tables or passages of the source.

B1: Sus1 (natural protein, yeast, UniProt Q6WNK7 1-96, looked up)
chain: MTMDTAQLKSQIQQYLVESGNYELISNELKARLLQEGWVDKVKDLTKSEMNINESTNFTQILSTVEPKALEMVSDSTRETVLKQIREFLEEIVDTQ

What was measured:
Sus1 [1] = target: B1; test: crystal structure
Sus1 [2] = target: B1; test: crystal structure; remark: listed apart in the source
[3] = target: T1, Sgf11 full-length, released from GST (S. cerevisiae, UniProt Q03067 1-99); test: SEC
T1 sequence (looked up): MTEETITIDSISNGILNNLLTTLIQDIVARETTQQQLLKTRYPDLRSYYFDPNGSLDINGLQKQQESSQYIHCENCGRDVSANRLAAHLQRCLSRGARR

[4] = target: T2, GST-Sac3 753-805 / Cdc31 complex (yeast, UniProt P46674 753-805; P06704 1-161); test: pull-down
T2 sequence (looked up) 1: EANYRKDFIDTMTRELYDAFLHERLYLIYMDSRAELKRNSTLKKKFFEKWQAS
T2 sequence (looked up) 2: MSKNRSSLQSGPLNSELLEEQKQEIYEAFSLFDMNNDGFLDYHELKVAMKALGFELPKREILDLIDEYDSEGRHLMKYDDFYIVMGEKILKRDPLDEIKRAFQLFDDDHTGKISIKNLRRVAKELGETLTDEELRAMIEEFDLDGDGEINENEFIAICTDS

[5] = target: T3, GST-Sac3 723-805 / Cdc31 complex (yeast, UniProt P46674 723-805; P06704 1-161); test: pull-down
T3 sequence (looked up) 1: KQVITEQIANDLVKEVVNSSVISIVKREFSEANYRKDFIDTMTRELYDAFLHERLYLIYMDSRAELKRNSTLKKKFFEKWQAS
T3 sequence (looked up) 2: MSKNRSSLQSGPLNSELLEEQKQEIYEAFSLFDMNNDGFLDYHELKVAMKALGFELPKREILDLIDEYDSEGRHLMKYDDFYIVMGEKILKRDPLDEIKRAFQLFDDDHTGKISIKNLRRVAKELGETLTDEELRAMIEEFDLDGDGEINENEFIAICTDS

## TIDSISNGILNNLLTTLIQDIVARETT (domain or fragment, S. cerevisiae, UniProt Q03067 7-33, looked up) [Sgf11-(7-33), released from GST]
Sus1 [1]
  binding result: binds

## MTEETITIDSISNGILNNLLTTLIQDIVARETT (domain or fragment, S. cerevisiae, UniProt Q03067 1-33, looked up) [Sgf11-(1-33), released from GST]
Sus1 [2]
  binding result: binds

## B1
[3]
  binding result: binds
[4]
  binding result: binds
[5]
  binding result: binds
